In US20080267971A1 (published 2008):

T1: human Angiopoietin-2 (human, UniProt O15123 19-496)
T1 sequence: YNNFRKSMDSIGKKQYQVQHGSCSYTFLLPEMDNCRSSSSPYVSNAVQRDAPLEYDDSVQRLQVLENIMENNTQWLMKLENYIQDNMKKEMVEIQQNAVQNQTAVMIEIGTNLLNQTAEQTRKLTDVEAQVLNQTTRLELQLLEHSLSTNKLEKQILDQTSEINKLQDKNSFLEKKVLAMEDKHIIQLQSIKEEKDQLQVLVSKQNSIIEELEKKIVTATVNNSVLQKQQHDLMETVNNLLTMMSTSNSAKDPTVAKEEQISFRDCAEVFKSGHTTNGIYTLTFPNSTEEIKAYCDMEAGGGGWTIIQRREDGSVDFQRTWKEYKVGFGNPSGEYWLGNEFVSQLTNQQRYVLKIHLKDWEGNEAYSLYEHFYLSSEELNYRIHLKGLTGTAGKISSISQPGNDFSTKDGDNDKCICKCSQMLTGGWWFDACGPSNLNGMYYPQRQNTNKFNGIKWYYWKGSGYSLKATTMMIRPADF

T2: mouse Angiopoietin-2 (mouse, UniProt O35608 19-496)
T2 construct: Used as conditioned medium of transfectants; also called mAng-2; mouse Ang-2
T2 sequence: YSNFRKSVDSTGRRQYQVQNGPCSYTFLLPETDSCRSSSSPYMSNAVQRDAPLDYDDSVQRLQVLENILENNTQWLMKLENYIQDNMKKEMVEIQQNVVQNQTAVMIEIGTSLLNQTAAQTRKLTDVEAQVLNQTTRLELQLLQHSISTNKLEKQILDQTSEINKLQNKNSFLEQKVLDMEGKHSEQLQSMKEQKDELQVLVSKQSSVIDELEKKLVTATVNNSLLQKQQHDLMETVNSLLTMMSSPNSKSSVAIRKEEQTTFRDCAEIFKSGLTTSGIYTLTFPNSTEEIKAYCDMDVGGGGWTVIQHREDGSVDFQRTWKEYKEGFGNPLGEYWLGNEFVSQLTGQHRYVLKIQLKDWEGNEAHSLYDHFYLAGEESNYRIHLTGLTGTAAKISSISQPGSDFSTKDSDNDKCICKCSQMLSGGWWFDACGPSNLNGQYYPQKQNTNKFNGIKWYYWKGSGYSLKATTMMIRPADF


Experiments:
human Angiopoietin-2 [1] = biological target: T1, human Angiopoietin-2; test: cell-based or functional assay
human Angiopoietin-2 [2] = biological target: T1, human Angiopoietin-2; test: competition ELISA: biotin-Ang-2 on coated Tie2/Fc
Experimental: 96-well Nunc Immplates™ were coated with 100 μl of recombinant human Tie2/Fc fusion protein (R&D Systems, Inc., Cat. No. 313-TI-100) at 4 μg/ml by incubating overnight at 4° C. The plates were washed four times using Phosphate Buffer Saline (PBS) with a Skan™ Washer 300 station (SKATRON). The wells were blocked by 100 μl of ABX-blocking buffer (0.5% BSA, 0.1% Tween, 0.01% Thimerosal in PBS) for 1 hour.
The plates were incubated at room temperature for two hours before the unbound molecules were washed off. […] After washing twice, the bound Streptavidin was detected by HRP substrate (R&D Systems, Cat. No. DY998). The plates were incubated for 30 minutes before 450 stop solution (100 μl/well, BioFX, Cat# BSTP-0100-01) was added to terminate the reaction. The light absorbance at 450 nm was determined by a Spectramax Plus reader.
Each concentration of the mAb was tested in duplicate. The concentration-response relationship was found by curve fitting using Graphpad Prism™ graphic software (non-linear, Sigmoid curve). The maximal inhibition (efficacy) and IC₅₀ (potency) were calculated by the software.

mouse Angiopoietin-2 = biological target: T2, mouse Angiopoietin-2; test: ELISA on plates coated with conditioned medium of HEK293F/mouse Ang-2 transfectants, mAb titrated, detection with anti-human Fc-HRP
Experimental: The plates were incubated at 4° C. overnight, followed by washing four times using Phosphate Buffer Saline with a Skan Washer 300 station (SKATRON). The wells were blocked by 100 μl of ABX-block buffer (0.5% BSA, 0.1% Tween, 0.01% Thimerosal in PBS) for 1 hour. […] The mAbs and each of their dilutes were tested in duplicate. After washing twice, the bound mAbs were detected by goat anti-human Fc-HPPO-conjugated antibody (Caltag, Code H10507) at 1/1,000 dilution at room temperature for an hour. To set up the detecting chromagenic reaction, 100 μl of TMB substrate (TMB-microwell, BioFX, Cat. No. TMSK-1000-01) was added after washing the wells three times using PBS. The plates were incubated for 30 minutes before 650 stop solution (100 μl/well, BioFX, Cat. No. BSTP-0100-01) was added to terminate the reaction. The light absorbance at […] was determined by a Spectramax Plus reader.

human Angiopoietin-2 [3] = biological target: T1, human Angiopoietin-2; test: high resolution Biacore, 1st experiment; kd held constant (*)
Experimental: (§1) The mAb was then immobilized on flow cells 1-3 (CM5 Biacore chip) using routine amine coupling, leaving flow cell 4 as the reference flow cell.
(§2) The antibody surfaces were regenerated with a 6-second pulse of 15 mM NaOH after each injection cycle.
(§3) The sample injections alternated with three blank injection cycles. Each surface was regenerated with a 6-second pulse of 15 mM NaOH after each long off-rate injection cycle.

human Angiopoietin-2 [4] = biological target: T1, human Angiopoietin-2; test: FACS: inhibition of Ang-2 binding to HEK293F/Tie2 cells
Experimental: Cell suspension of 4 million cells/mL in FACS Buffer were prepared, and then aliquoted to a 96-well polypropylene plate with 50 ul per well. […] Cells were washed by centrifuging the plate at 1,200 rpm for 5 minutes, removing the supernatant by aspirating, and resuspending the cells with 200 ul per well of FACS Buffer. Washing procedures were repeated twice. The cells were then suspended with 100 ul of mouse Anti-6×-Histidine antibody diluted to 2 ug/ml in FACS Buffer, and incubated at room temperature for 30 minutes. After washing, the cells were suspended in 100 ul of PE-conjugated goat anti-mouse-IgG, which was diluted 1:100 in FACS Buffer, for incubation at room temperature for 30 minutes. The volume of the samples were brought to 300 ul with FACS Buffer, and measured with FACS Calibur.

human Angiopoietin-2 [5] = biological target: T1, human Angiopoietin-2; test: high resolution Biacore, 2nd experiment; kd held constant (*)
Experimental: as §1, §2, §3

Row | Binder | EC50, inhibition of Ang-2-induced Tie2 phosphorylation (HEK293F/Tie2, ELISA) (human Angiopoietin-2 [1]) [µg/mL] | EC50 (human Angiopoietin-2 [2]) [µg/mL] | Efficacy (ratio of bound Ang-2 with mAb 30 µg/ml versus without) (human Angiopoietin-2 [2]) [ratio] | binding result (mouse Angiopoietin-2) | koff (human Angiopoietin-2 [3]) [s⁻¹] | EC50 (read off the curve) (mouse Angiopoietin-2) [µg/mL] | EC50 (human Angiopoietin-2 [4]) [nM] | koff (human Angiopoietin-2 [5]) [s⁻¹]
1 | mAb 5.86.1 (antibody, V domains shown, Human hybridoma IgG (XenoMouse); also called x5.86) VH: QVQLVQSGAEVKKPGASVKVSCKASGYTFTGYHMYWVRQAPGQGLEWLGWINPNSGGTNYAQKFQGRVTMTRDTSISTAYMELSRLRSDDTAVYYCVRDQGIAAAGPFDYWCQGTLVTVSS VL: DIRMTQSPSSLSASVGDRVTITCRASQRISTYLNWYQQKPGKAPKFLIYAASSLQSGVPSRFSGSGSGTDFTLTISSLQPEDFATYYCQQSYTTPFTFGPGTKVDIKR | 0.008 | 0.133 | 0.384 |  |  |  |  | 
2 | mAb 3.19.3 (antibody, V domains shown, Human hybridoma IgG (XenoMouse); also called x3.19) VH: QVQLVESGGGVVQPGRSLRLSCAASGFTFTNYGMHWGRQAPGKGLEWVAVISHDGNNKYYVDSVKGRFTISRDNSKNTLYLQMNSLRAEDTAVYYCAREGIDFWSGLNWFDPWGQGTLVTVSS VL: EIVLTQSPGTLSLSPGERATLSCRASQSITGSYLAWYQQKPGQAPRLLICGASSWATGIPDRFSGSGSGTDFTLTISRLEPEDFAVYYCQQYSSSPITFGQGTRLEIKR | 0.006 | 0.798 | 0.395 |  | ~1e-06 | ~1 | 0.731 | ~1e-06
3 | mAb 5.88.3 (antibody, V domains shown, Human hybridoma IgG (XenoMouse); also called x5.88) VH: EVQMVESGGGLVQPGGSLRLSCAASGFTLRSYWMSWVRQAPGKGLEWVANIKEDGSEKYHVDSVKGRFTISRDNAENSLFLQMSSLRAEDTAVYYCARDMEASAGLFDYWGQGTLVTVSS VL: EIVMTQSPATLSVSPGERAILSCRASQSISSNLAWYQQKPGQAPRLLIYGASTRATGIPARFSGSGSGTEFTLTISSLQSEDFAVYYCQQYNYWWTFGQGTKVEIKR | 0.016 | 0.156 | 0.403 |  |  |  |  | 
4 | mAb 3.31.2 (antibody, V domains shown, Human hybridoma IgG (XenoMouse); also called x3.31) VH: EVQLVESGGGLVQPGGSLRLSCAASGFTFSSYWMSWVRQAPGKGLEWVANIKQDGSDKYYVDSVKGRFTISRDNAKNSLYLRMNSLRAEDTAVFYCARDMGSGWFDYWGQGTLVTVSS VL: EVVMTQSPATLSVSPGERATLSCRASQSVGSNLAWYQQKPGQAPRLLIYGASTRATGIPARFSGSGSGTEFTLTISSLQSEDFAVYCCQQYNHWWTFGQGTKVEIKR | 0.043 | 0.0417 | 0.375 |  |  |  |  | 
5 | mAb 3.3.2 (antibody, V domains shown, Human hybridoma IgG (XenoMouse); also called 3.3.1; x3.3) VH: EVQLVESGGGLVQPGGSLRLSCAVSGFTFSSYWMSWVRQAPGKGLEWVANIKQDGSEKYYVDSVKGRFTISRDNAKNSLYLQMNSLRAEDTAVYYCARDQGIAVAGPFDYWGQGTLVTVSS VL: EIVMTQSPATLSVSPGERATLSCRASQTVSSDLAWYQQKPGQAPRLLIYGASIRATGIPARFSGSGSGTEFTLTISSLQSEDFAVYSCQQYYNWWTFGQGTKVEIKR | 0.046 | 0.168 | 0.388 |  |  |  |  | 

Continued, values first:

Row | EC50, inhibition of Ang-2-induced Tie2 phosphorylation (HEK293F/Tie2, ELISA) (human Angiopoietin-2 [1]) [µg/mL] | EC50 (human Angiopoietin-2 [2]) [µg/mL] | Efficacy (ratio of bound Ang-2 with mAb 30 µg/ml versus without) (human Angiopoietin-2 [2]) [ratio] | binding result (mouse Angiopoietin-2) | koff (human Angiopoietin-2 [3]) [s⁻¹] | EC50 (read off the curve) (mouse Angiopoietin-2) [µg/mL] | EC50 (human Angiopoietin-2 [4]) [nM] | koff (human Angiopoietin-2 [5]) [s⁻¹] | Binder
6 | 0.095 | 0.364 | 0.232 |  |  |  |  |  | mAb 5.103.1 (antibody, V domains shown, Human hybridoma IgG (XenoMouse); also called 5.103.3; x5.103) VH: QVQLVQSGAEVKKPGASVKVSCKASGYTFTGYYLYWVPQAPGQGLEWMGWISPNSGGTNYAQKFQGRVTMTRDTSISTAYMELSRLRSDDTAVYYCARDQVIAVAGPFDYWAQGTLVTVSS VL: not shown
7 |  | 2.7 | 0.389 | no binding (tested: 100 µg/ml) |  |  |  |  | mAb 5.28.1 (antibody, V domains shown, Human hybridoma IgG (XenoMouse); also called x5.28) VH: EVQLVESGGIVVQPGGSLRLSCAASGFTFDDYTMHWVRQTPGKGLEWVSLISWDGGSTYYADSVKGRFTISRDNSKNSLYLQMNSLRTEDTALYYCAKDIDIAVAGTGFDHWGQGTLVTVSS VL: EIVMTQSPATLSVSPGERATLSCRASQSVTSNLAWYQQKPGQAPRLLIYGALIRATGIPARFSGSGSGTEFTLTISSLQSEDFAVYYCQQYNNWPFTFGPGTKVDIKR
8 | 0.733 | 0.376 | 0.364 |  |  |  |  |  | mAb 5.101.1 (antibody, V domains shown, Human hybridoma IgG (XenoMouse); also called x5.101) VH: not shown VL: EIVMTQSPATLSVSPGERATLSCRASQSLISNLAWYQQKPGQAPRLLIFGASTRATGIPARFSGSGSGTEFTLTISSLQSEDFAVYYCHQYNNWWTFGQGTKVEIKR
